The text below walks through data of US20240352097A1 (NATIONAL SUN YAT SEN UNIVERSITY, published 2024).

Holding throughout (assay): cell-based or functional assay
Experiment [1] concerns the target DENV-2 envelope (E) protein (Dengue virus serotype 2, UniProt P29990 281-679).
Experiment [2] has as its target T1, DENV-3 envelope (E) protein (Dengue virus serotype 3, UniProt Q5UB51 281-678).
T1 chain: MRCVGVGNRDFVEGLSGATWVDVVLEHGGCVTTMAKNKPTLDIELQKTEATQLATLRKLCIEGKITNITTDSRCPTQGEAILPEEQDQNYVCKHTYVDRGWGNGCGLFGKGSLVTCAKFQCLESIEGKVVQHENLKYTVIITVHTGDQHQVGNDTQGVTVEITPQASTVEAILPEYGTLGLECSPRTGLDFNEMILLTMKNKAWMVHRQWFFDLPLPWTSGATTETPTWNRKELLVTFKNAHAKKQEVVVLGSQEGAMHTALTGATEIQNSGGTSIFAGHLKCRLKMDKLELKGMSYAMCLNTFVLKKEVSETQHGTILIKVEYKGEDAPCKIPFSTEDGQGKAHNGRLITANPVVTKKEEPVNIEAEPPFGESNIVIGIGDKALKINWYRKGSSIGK

In a further experiment the target is T2, JEV envelope (E) protein (Japanese encephalitis virus, UniProt P0DOH8 295-699).
T2 chain: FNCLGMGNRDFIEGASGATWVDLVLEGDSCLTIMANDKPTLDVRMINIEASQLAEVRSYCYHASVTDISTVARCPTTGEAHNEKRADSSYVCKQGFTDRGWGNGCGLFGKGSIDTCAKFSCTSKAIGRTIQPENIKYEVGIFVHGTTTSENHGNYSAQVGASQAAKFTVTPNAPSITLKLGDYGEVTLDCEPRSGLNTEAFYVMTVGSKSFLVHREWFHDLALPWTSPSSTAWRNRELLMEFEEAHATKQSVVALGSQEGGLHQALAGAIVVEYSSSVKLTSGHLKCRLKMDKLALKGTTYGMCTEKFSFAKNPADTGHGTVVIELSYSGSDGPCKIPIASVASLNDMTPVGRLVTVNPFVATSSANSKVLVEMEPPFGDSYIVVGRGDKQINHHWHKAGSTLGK

The target of experiment [3] is T3, DENV-1 envelope (E) protein (Dengue virus serotype 1, UniProt P27909 281-680).
T3 chain: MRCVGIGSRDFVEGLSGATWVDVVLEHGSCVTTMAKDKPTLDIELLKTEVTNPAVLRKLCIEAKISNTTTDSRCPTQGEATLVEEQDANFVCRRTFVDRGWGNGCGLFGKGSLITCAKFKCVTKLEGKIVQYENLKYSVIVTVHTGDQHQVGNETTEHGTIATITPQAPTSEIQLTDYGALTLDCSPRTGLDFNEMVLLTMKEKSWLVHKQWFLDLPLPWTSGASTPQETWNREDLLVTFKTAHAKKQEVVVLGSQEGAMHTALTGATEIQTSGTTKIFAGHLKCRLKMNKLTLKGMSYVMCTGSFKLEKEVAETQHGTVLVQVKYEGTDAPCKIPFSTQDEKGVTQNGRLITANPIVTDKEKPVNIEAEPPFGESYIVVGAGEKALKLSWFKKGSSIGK

Experiment [4] has as its target DENV-4 envelope (E) protein (Dengue virus serotype 4, UniProt Q58HT7 280-679).

B1: K8b-IgG1 (antibody, V domains shown)
VH: QVQLVQPGAEVVKPGASVKLSCKTSGYTFTSNWMHWVKQAPGQGLEWIGEIDPSDSYTNYNQNFQGKAKLTVDKSTSTAYMEVSSLRSDDTAVYYCARGSNPYYYAMDYWGQGTSVTVSS
VL: EIVMMQSPLTLSLSPGERATLSCRASQSVSSNYLAWYQQRPGQAPRLLIYGVSSRATGVPVRFSGSGSGTDFTLTISRLEPEDFAVYYCQHYGGSLSWTFGQGTKVEIK
For B1, in experiment [1], the “neutralization (FRµNT50)” value is 0.207 µg/mL.

B2: K8b-F(ab) (Fab, V domains shown)
VH: B1 VH
VL: EIVMMQSPLTLSLSPGERATLSCRASQSVSSNYLAWYQQRPGQAPRLLIYGVSSRATGVPVRFSGSGSGTDFTLTISRLEPEDFAVYYCQHYGGSLSWTFGQGTKVEIKR
For the molecule B2, the “neutralization (FRµNT50)” value in experiment [1] was determined as 37 nM.

B3: K5-IgG1 (antibody, V domains shown)
VH: EVQLLESGAEVKKPGSSVKVSCQASGDTFSNSDINWVRQAPGQGLEWMGGIIPAYDTTNYARTFQGRVAITADKSTSTVYMELSRLRSEDTAVYYCATDQRDYFGLGNHFNAQHFWGQGTLVTVSS
VL: AIRMTQTPLSLSASVGDRVTITCRASQSISNYLNWYQQRPGKAPNLLIYTASNLHSGVPSRFSGSGSGTDFTLTISSLQPEDFATYYCQQSYSGGYTFGQGPSWEIK
For the molecule B3, the “neutralization (FRµNT50)” value in experiment [2] turned out to be 1.21 µg/mL; in experiment [1], 0.215 µg/mL; with JEV envelope (E) protein it was 0.682 µg/mL; in experiment [3], 0.771 µg/mL; in experiment [4], 1.51 µg/mL.
